According to PMC3060076 (PLoS Genetics, 2011):

T1: Myc-Smo (6Myc-tagged Smoothened) (Drosophila, UniProt P91682 32-1036)
T1 sequence (looked up): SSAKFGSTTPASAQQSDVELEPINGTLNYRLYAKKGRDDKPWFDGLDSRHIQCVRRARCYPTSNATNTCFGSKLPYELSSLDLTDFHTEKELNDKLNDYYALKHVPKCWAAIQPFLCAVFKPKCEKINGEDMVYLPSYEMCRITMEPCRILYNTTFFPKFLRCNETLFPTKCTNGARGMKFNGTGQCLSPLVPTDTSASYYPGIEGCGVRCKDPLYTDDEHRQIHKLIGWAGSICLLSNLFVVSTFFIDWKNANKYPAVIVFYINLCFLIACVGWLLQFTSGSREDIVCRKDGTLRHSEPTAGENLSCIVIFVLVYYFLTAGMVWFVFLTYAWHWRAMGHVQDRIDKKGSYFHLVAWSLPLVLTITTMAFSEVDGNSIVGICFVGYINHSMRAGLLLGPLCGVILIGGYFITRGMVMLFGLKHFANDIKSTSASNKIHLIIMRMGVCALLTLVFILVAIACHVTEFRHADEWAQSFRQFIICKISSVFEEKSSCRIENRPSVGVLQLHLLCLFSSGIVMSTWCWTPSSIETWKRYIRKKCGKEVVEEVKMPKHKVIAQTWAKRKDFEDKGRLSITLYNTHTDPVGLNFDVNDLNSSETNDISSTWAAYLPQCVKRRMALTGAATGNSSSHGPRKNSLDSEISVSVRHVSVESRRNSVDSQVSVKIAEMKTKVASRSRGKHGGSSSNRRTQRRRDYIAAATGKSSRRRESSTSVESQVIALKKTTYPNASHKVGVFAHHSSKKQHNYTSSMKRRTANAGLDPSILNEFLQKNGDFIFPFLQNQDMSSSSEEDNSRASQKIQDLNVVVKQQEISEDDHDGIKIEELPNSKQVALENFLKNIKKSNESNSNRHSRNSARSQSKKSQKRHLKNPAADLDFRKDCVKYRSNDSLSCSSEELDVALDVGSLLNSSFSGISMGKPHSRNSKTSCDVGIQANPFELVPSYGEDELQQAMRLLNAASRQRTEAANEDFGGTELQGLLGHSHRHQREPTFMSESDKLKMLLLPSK


Target: T1, Myc-Smo (6Myc-tagged Smoothened)
Test: co-IP; lysates of stable Myc-Smo S2 cells transiently transfected with pAWF-krz constructs, grown in Hh conditioned medium for 18-24 hrs; immunoprecipitated with anti-Myc agarose at 4°C for 4-16 h with 1 mg/ml BSA (IP buffer: 40 mM Tris-HCl, 200 mM NaCl, 1% Chapso, 0,5% NP40); blotted with anti-Krz serum and anti-Myc
Conditions: partners not purified

| Binder | fold of co-immunoprecipitate over wild type Krz |
| --- | --- |
| Krz^Leu-Flag (pAWF-Krz^Leu; Leu440-Ile441-Leu443 to Ala) (natural protein, Drosophila, UniProt Q9V393 1-470, looked up) MNGGGGGSGGANVSNGSSTNVTAAGSTGGGSAGDETGGDASSRRQATRVFKKSSSNGKITVYLGKRDFVDHVTHVDPIDGVVFIDPEYVKDRKVFGQVLAAFRYGREDLDVLGLTFRKDLYLAHEQIYPPMQLDRPMTRLQERLIKKLGPNAHPFYFEVPPYCPASVSLQPAPGDVGKSCGVDYELKAFVGENVEDKPHKRNSVRLTIRKVMYAPSKVGEQPSIEVSKEFMMKPNKIHLEATLDKELYHHGEKISVNVHVANNSNRTVKKIKVCVRQFADICLFSTAQYKSVVAEIESEDGCQVAPGFTLSKVFELCPLLANNKDKWGLALDGQLKHEDTNLASSTLITNPAQRESLGIMVHYKVKVKLLISSPLLNGDLVAELPFTLMHPKPEEEEHPLLGERSPRASLAGGGLPLVSMSDGETESATGGQDVPTTTNAAQADDDEAQDDDIIFEDFARLRLKGAETEA | 4 times over wild type Krz |
| Krz^V94D-Flag (pAWF-Krz^V94D) (natural protein, Drosophila, UniProt Q9V393 1-470, looked up) MNGGGGGSGGANVSNGSSTNVTAAGSTGGGSAGDETGGDASSRRQATRVFKKSSSNGKITVYLGKRDFVDHVTHVDPIDGVVFIDPEYVKDRKDFGQVLAAFRYGREDLDVLGLTFRKDLYLAHEQIYPPMQLDRPMTRLQERLIKKLGPNAHPFYFEVPPYCPASVSLQPAPGDVGKSCGVDYELKAFVGENVEDKPHKRNSVRLTIRKVMYAPSKVGEQPSIEVSKEFMMKPNKIHLEATLDKELYHHGEKISVNVHVANNSNRTVKKIKVCVRQFADICLFSTAQYKSVVAEIESEDGCQVAPGFTLSKVFELCPLLANNKDKWGLALDGQLKHEDTNLASSTLITNPAQRESLGIMVHYKVKVKLLISSPLLNGDLVAELPFTLMHPKPEEEEHPLLGERSPRASLAGGGLPLVSMSDGETESATGGQDVPTTTNLIQLDDDEAQDDDIIFEDFARLRLKGAETEA | 3 times over wild type Krz |
